Two molecules from publication PMC12922752 (Science Advances, 2026) can be followed below.

In assay [1] the target is Rpn1, human, recombinant full-length (human) (UniProt Q13200). Description: ITC. Background: ITC needs no label: the signal is the heat of the interaction.
Assay [2] concerns the target Hsp70 nucleotide-binding domain (Hsp70NBD). Description: ITC.
Assay [3] concerns the target Rpn1, human, recombinant full-length (human, UniProt Q13200 1-908). The assay can be described thus: cross-linking.

Chain of Rpn1, human, recombinant full-length (human) (Q13200 whole entry, the tested form may be a part): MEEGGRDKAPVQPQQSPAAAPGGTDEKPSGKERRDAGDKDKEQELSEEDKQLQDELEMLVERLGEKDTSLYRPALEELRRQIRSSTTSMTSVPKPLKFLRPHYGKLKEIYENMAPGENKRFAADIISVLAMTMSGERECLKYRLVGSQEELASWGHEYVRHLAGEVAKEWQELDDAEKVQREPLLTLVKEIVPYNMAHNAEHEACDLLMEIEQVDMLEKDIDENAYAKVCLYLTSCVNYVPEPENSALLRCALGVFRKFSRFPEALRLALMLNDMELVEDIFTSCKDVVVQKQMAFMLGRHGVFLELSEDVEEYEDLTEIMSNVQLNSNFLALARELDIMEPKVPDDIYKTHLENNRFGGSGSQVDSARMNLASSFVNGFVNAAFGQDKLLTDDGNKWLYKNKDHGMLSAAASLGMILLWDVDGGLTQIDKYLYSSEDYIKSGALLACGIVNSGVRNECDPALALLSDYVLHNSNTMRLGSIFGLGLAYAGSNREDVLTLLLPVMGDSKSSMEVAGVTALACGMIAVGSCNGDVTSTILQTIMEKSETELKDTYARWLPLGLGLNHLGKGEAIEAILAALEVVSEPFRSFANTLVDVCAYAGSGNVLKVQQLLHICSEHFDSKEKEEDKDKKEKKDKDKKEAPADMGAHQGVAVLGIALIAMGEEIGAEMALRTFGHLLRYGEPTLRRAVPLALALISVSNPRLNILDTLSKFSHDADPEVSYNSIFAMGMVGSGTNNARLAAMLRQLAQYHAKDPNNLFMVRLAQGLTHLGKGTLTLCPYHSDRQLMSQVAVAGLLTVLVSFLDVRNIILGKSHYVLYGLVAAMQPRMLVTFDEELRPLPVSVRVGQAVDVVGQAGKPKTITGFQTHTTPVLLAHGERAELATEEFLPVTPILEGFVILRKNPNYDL
Chain of Rpn1, human, recombinant full-length (Q13200 whole entry): as the sequence (Q13200 whole entry, the tested form may be a part) above

“Bcl-2-associated anthanogene 1 (Bag1), full-length (natural protein)”: the results for the equilibrium dissociation constant (Kd) in assay [1] and in assay [2] were 500 nM and 50 nM, respectively.

B1: Rpt2 of the ATPase ring isolated from Saccharomyces cerevisiae (natural protein)
chain: MGQGVSSGQDKKKKKGSNQKPKYEPPVQSKFGRKKRKGGPATAEKLPNIYPSTRCKLKLLRMERIKDHLLLEEEFVSNSEILKPFEKKQEEEKKQLEEIRGNPLSIGTLEEIIDDDHAIVTSPTMPDYYVSILSFVDKELLEPGCSVLLHHKTMSIVGVLQDDADPMVSVMKMDKSPTESYSDIGGLESQIQEIKESVELPLTHPELYEEMGIKPPKGVILYGAPGTGKTLLAKAVANQTSATFLRIVGSELIQKYLGDGPRLCRQIFKVAGENAPSIVFIDEIDAIGTKRYDSNSGGEREIQRTMLELLNQLDGFDDRGDVKVIMATNKIETLDPALIRPGRIDRKILFENPDLSTKKKILGIHTSKMNLSEDVNLETLVTTKDDLSGADIQAMCTEAGLLALRERRMQVTAEDFKQAKERVMKNKVEENLEGLYL
With B1, the binding result in assay [3] is “binds”.
